Numbered stars: 1 amine (or outer) side, 2 acyl side, 3 side chain; on linkers, the order of the positions; unused ones are H or OH. Bridge positions count the residues as written; N and C are the ends. Side chains are listed from the residue outwards. Ends that are not written are not given here. * marks the point of attachment. C20 diacid = O=C(O)CCCCCCCCCCCCCCCCCCC(=O)*; γGlu = O=C(O)[C@H](CCC(=O)[*:2])N[*:1]
B1: N^ε1-[(4S)-4-carboxy-4-(19-carboxynonadecanoylamino)butanoyl]-[Ala14,Arg17,Pro21,Pro27,His34]-h-amylin (peptide)
peptide: K([γGlu-C20 diacid])CNTATCATQRLAAFLRHSSPNFGAIPSSTNVGHNTY-NH2
modifications: disulfide 2-7; N-terminus assumed
SMILES: CC[C@H](C)[C@H](NC(=O)[C@H](C)NC(=O)CNC(=O)[C@H](Cc1ccccc1)NC(=O)[C@H](CC(N)=O)NC(=O)[C@@H]1CCCN1C(=O)[C@H](CO)NC(=O)[C@H](CO)NC(=O)[C@H](Cc1c[nH]cn1)NC(=O)[C@H](CCCNC(=N)N)NC(=O)[C@H](CC(C)C)NC(=O)[C@H](Cc1ccccc1)NC(=O)[C@H](C)NC(=O)[C@H](C)NC(=O)[C@H](CC(C)C)NC(=O)[C@H](CCCNC(=N)N)NC(=O)[C@H](CCC(N)=O)NC(=O)[C@@H](NC(=O)[C@H](C)NC(=O)[C@@H]1CSSC[C@H](NC(=O)[C@@H](N)CCCCNC(=O)CC[C@H](NC(=O)CCCCCCCCCCCCCCCCCCC(=O)O)C(=O)O)C(=O)N[C@@H](CC(N)=O)C(=O)N[C@@H]([C@@H](C)O)C(=O)N[C@@H](C)C(=O)N[C@@H]([C@@H](C)O)C(=O)N1)[C@@H](C)O)C(=O)N1CCC[C@H]1C(=O)N[C@@H](CO)C(=O)N[C@@H](CO)C(=O)N[C@H](C(=O)N[C@@H](CC(N)=O)C(=O)N[C@H](C(=O)NCC(=O)N[C@@H](Cc1c[nH]cn1)C(=O)N[C@@H](CC(N)=O)C(=O)N[C@H](C(=O)N[C@@H](Cc1ccc(O)cc1)C(N)=O)[C@@H](C)O)C(C)C)[C@@H](C)O
notes: also called 14A, 17R, 21P, 27P, 34H
B2: N^ε1-[(4S)-4-carboxy-4-(19-carboxynonadecanoylamino)butanoyl]-[Arg14,Arg17,Pro21,Pro27,Pro34]-h-amylin (peptide)
peptide: K([γGlu-C20 diacid])CNTATCATQRLARFLRHSSPNFGAIPSSTNVGPNTY-NH2
modifications: disulfide 2-7; N-terminus assumed
SMILES: CC[C@H](C)[C@H](NC(=O)[C@H](C)NC(=O)CNC(=O)[C@H](Cc1ccccc1)NC(=O)[C@H](CC(N)=O)NC(=O)[C@@H]1CCCN1C(=O)[C@H](CO)NC(=O)[C@H](CO)NC(=O)[C@H](Cc1c[nH]cn1)NC(=O)[C@H](CCCNC(=N)N)NC(=O)[C@H](CC(C)C)NC(=O)[C@H](Cc1ccccc1)NC(=O)[C@H](CCCNC(=N)N)NC(=O)[C@H](C)NC(=O)[C@H](CC(C)C)NC(=O)[C@H](CCCNC(=N)N)NC(=O)[C@H](CCC(N)=O)NC(=O)[C@@H](NC(=O)[C@H](C)NC(=O)[C@@H]1CSSC[C@H](NC(=O)[C@@H](N)CCCCNC(=O)CC[C@H](NC(=O)CCCCCCCCCCCCCCCCCCC(=O)O)C(=O)O)C(=O)N[C@@H](CC(N)=O)C(=O)N[C@@H]([C@@H](C)O)C(=O)N[C@@H](C)C(=O)N[C@@H]([C@@H](C)O)C(=O)N1)[C@@H](C)O)C(=O)N1CCC[C@H]1C(=O)N[C@@H](CO)C(=O)N[C@@H](CO)C(=O)N[C@H](C(=O)N[C@@H](CC(N)=O)C(=O)N[C@H](C(=O)NCC(=O)N1CCC[C@H]1C(=O)N[C@@H](CC(N)=O)C(=O)N[C@H](C(=O)N[C@@H](Cc1ccc(O)cc1)C(N)=O)[C@@H](C)O)C(C)C)[C@@H](C)O
notes: also called 14R, 17R, 21P, 27P, 34P
B3: N^ε1-[(4S)-4-carboxy-4-(19-carboxynonadecanoylamino)butanoyl]-[Arg17,Pro21,Pro27,His34]-h-amylin (peptide)
peptide: K([γGlu-C20 diacid])CNTATCATQRLANFLRHSSPNFGAIPSSTNVGHNTY-NH2
modifications: disulfide 2-7; N-terminus assumed
SMILES: CC[C@H](C)[C@H](NC(=O)[C@H](C)NC(=O)CNC(=O)[C@H](Cc1ccccc1)NC(=O)[C@H](CC(N)=O)NC(=O)[C@@H]1CCCN1C(=O)[C@H](CO)NC(=O)[C@H](CO)NC(=O)[C@H](Cc1c[nH]cn1)NC(=O)[C@H](CCCNC(=N)N)NC(=O)[C@H](CC(C)C)NC(=O)[C@H](Cc1ccccc1)NC(=O)[C@H](CC(N)=O)NC(=O)[C@H](C)NC(=O)[C@H](CC(C)C)NC(=O)[C@H](CCCNC(=N)N)NC(=O)[C@H](CCC(N)=O)NC(=O)[C@@H](NC(=O)[C@H](C)NC(=O)[C@@H]1CSSC[C@H](NC(=O)[C@@H](N)CCCCNC(=O)CC[C@H](NC(=O)CCCCCCCCCCCCCCCCCCC(=O)O)C(=O)O)C(=O)N[C@@H](CC(N)=O)C(=O)N[C@@H]([C@@H](C)O)C(=O)N[C@@H](C)C(=O)N[C@@H]([C@@H](C)O)C(=O)N1)[C@@H](C)O)C(=O)N1CCC[C@H]1C(=O)N[C@@H](CO)C(=O)N[C@@H](CO)C(=O)N[C@H](C(=O)N[C@@H](CC(N)=O)C(=O)N[C@H](C(=O)NCC(=O)N[C@@H](Cc1c[nH]cn1)C(=O)N[C@@H](CC(N)=O)C(=O)N[C@H](C(=O)N[C@@H](Cc1ccc(O)cc1)C(N)=O)[C@@H](C)O)C(C)C)[C@@H](C)O
notes: also called 17R, 21P, 27P, 34H
B4: N^ε1-[(4S)-4-carboxy-4-(19-carboxynonadecanoylamino)butanoyl]-[Arg17,Pro21,Pro27,Arg34]-h-amylin (peptide)
peptide: K([γGlu-C20 diacid])CNTATCATQRLANFLRHSSPNFGAIPSSTNVGRNTY-NH2
modifications: disulfide 2-7; N-terminus assumed
SMILES: CC[C@H](C)[C@H](NC(=O)[C@H](C)NC(=O)CNC(=O)[C@H](Cc1ccccc1)NC(=O)[C@H](CC(N)=O)NC(=O)[C@@H]1CCCN1C(=O)[C@H](CO)NC(=O)[C@H](CO)NC(=O)[C@H](Cc1c[nH]cn1)NC(=O)[C@H](CCCNC(=N)N)NC(=O)[C@H](CC(C)C)NC(=O)[C@H](Cc1ccccc1)NC(=O)[C@H](CC(N)=O)NC(=O)[C@H](C)NC(=O)[C@H](CC(C)C)NC(=O)[C@H](CCCNC(=N)N)NC(=O)[C@H](CCC(N)=O)NC(=O)[C@@H](NC(=O)[C@H](C)NC(=O)[C@@H]1CSSC[C@H](NC(=O)[C@@H](N)CCCCNC(=O)CC[C@H](NC(=O)CCCCCCCCCCCCCCCCCCC(=O)O)C(=O)O)C(=O)N[C@@H](CC(N)=O)C(=O)N[C@@H]([C@@H](C)O)C(=O)N[C@@H](C)C(=O)N[C@@H]([C@@H](C)O)C(=O)N1)[C@@H](C)O)C(=O)N1CCC[C@H]1C(=O)N[C@@H](CO)C(=O)N[C@@H](CO)C(=O)N[C@H](C(=O)N[C@@H](CC(N)=O)C(=O)N[C@H](C(=O)NCC(=O)N[C@@H](CCCNC(=N)N)C(=O)N[C@@H](CC(N)=O)C(=O)N[C@H](C(=O)N[C@@H](Cc1ccc(O)cc1)C(N)=O)[C@@H](C)O)C(C)C)[C@@H](C)O
notes: also called 17R, 21P, 27P, 34R
B5: N^ε1-[(4S)-4-carboxy-4-(19-carboxynonadecanoylamino)butanoyl]-[Ala14,Arg17,Pro21,Pro27,Pro34]-h-amylin (peptide)
peptide: K([γGlu-C20 diacid])CNTATCATQRLAAFLRHSSPNFGAIPSSTNVGPNTY-NH2
modifications: disulfide 2-7; N-terminus assumed
SMILES: CC[C@H](C)[C@H](NC(=O)[C@H](C)NC(=O)CNC(=O)[C@H](Cc1ccccc1)NC(=O)[C@H](CC(N)=O)NC(=O)[C@@H]1CCCN1C(=O)[C@H](CO)NC(=O)[C@H](CO)NC(=O)[C@H](Cc1c[nH]cn1)NC(=O)[C@H](CCCNC(=N)N)NC(=O)[C@H](CC(C)C)NC(=O)[C@H](Cc1ccccc1)NC(=O)[C@H](C)NC(=O)[C@H](C)NC(=O)[C@H](CC(C)C)NC(=O)[C@H](CCCNC(=N)N)NC(=O)[C@H](CCC(N)=O)NC(=O)[C@@H](NC(=O)[C@H](C)NC(=O)[C@@H]1CSSC[C@H](NC(=O)[C@@H](N)CCCCNC(=O)CC[C@H](NC(=O)CCCCCCCCCCCCCCCCCCC(=O)O)C(=O)O)C(=O)N[C@@H](CC(N)=O)C(=O)N[C@@H]([C@@H](C)O)C(=O)N[C@@H](C)C(=O)N[C@@H]([C@@H](C)O)C(=O)N1)[C@@H](C)O)C(=O)N1CCC[C@H]1C(=O)N[C@@H](CO)C(=O)N[C@@H](CO)C(=O)N[C@H](C(=O)N[C@@H](CC(N)=O)C(=O)N[C@H](C(=O)NCC(=O)N1CCC[C@H]1C(=O)N[C@@H](CC(N)=O)C(=O)N[C@H](C(=O)N[C@@H](Cc1ccc(O)cc1)C(N)=O)[C@@H](C)O)C(C)C)[C@@H](C)O
notes: also called 14A, 17R, 21P, 27P, 34P
B6: N^ε1-[(4S)-4-carboxy-4-(19-carboxynonadecanoylamino)butanoyl]-[Arg17,Pro21,Pro27,His35]-h-amylin (peptide)
peptide: K([γGlu-C20 diacid])CNTATCATQRLANFLRHSSPNFGAIPSSTNVGSHTY-NH2
modifications: disulfide 2-7; N-terminus assumed
SMILES: CC[C@H](C)[C@H](NC(=O)[C@H](C)NC(=O)CNC(=O)[C@H](Cc1ccccc1)NC(=O)[C@H](CC(N)=O)NC(=O)[C@@H]1CCCN1C(=O)[C@H](CO)NC(=O)[C@H](CO)NC(=O)[C@H](Cc1c[nH]cn1)NC(=O)[C@H](CCCNC(=N)N)NC(=O)[C@H](CC(C)C)NC(=O)[C@H](Cc1ccccc1)NC(=O)[C@H](CC(N)=O)NC(=O)[C@H](C)NC(=O)[C@H](CC(C)C)NC(=O)[C@H](CCCNC(=N)N)NC(=O)[C@H](CCC(N)=O)NC(=O)[C@@H](NC(=O)[C@H](C)NC(=O)[C@@H]1CSSC[C@H](NC(=O)[C@@H](N)CCCCNC(=O)CC[C@H](NC(=O)CCCCCCCCCCCCCCCCCCC(=O)O)C(=O)O)C(=O)N[C@@H](CC(N)=O)C(=O)N[C@@H]([C@@H](C)O)C(=O)N[C@@H](C)C(=O)N[C@@H]([C@@H](C)O)C(=O)N1)[C@@H](C)O)C(=O)N1CCC[C@H]1C(=O)N[C@@H](CO)C(=O)N[C@@H](CO)C(=O)N[C@H](C(=O)N[C@@H](CC(N)=O)C(=O)N[C@H](C(=O)NCC(=O)N[C@@H](CO)C(=O)N[C@@H](Cc1c[nH]cn1)C(=O)N[C@H](C(=O)N[C@@H](Cc1ccc(O)cc1)C(N)=O)[C@@H](C)O)C(C)C)[C@@H](C)O
notes: also called 17R, 21P, 27P, 35H

Each binder was assayed against T1, human amylin receptor (human, UniProt P30988 25-474; O60896 24-148, limits assumed) (assay: SPA competition binding, displacement of 125I-rat amylin from membranes with human amylin 3(a) receptor (Assay V)).
T1 construct: whole, on cells; Calcitonin receptor plus RAMP-3 gives the amylin 3(a) receptor; membranes of Amylin 3(a)/CRE-luc cells were used; also called hAmylin-R; hAmylinR
T1 sequence (looked up) 1: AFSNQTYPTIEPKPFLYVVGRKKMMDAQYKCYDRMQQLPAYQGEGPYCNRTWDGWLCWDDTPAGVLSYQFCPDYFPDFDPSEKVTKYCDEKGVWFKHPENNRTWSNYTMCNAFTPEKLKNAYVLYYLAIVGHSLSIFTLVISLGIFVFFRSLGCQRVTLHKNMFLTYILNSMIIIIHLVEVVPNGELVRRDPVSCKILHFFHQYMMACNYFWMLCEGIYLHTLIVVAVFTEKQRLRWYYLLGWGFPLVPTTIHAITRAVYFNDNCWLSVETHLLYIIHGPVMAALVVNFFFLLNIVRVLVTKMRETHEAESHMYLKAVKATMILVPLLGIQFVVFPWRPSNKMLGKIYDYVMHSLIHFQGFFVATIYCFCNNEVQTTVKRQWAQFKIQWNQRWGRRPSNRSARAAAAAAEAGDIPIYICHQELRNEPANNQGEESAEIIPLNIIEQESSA
T1 sequence (looked up) 2: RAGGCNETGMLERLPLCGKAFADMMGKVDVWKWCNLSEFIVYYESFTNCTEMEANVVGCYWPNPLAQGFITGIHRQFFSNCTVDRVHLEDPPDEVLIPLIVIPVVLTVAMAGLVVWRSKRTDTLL
How it was run: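 Membranes from BHK Amylin 3(a)/CRE-luc cells (35 ng/μL final) were mixed with SPA beads and test compounds in 50 mM Hepes pH 7.4 with 1 mM CaCl2, 5 mM MgCl₂, 0.1% OA and 0.02% Tween20. Incubation ran 120 min at 25° C with shaking; IC₅₀ came from one-site competition fitting.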
B1 showed an IC50 of 0.176 nM.
Work on B2 yielded an IC50 of 0.649 nM.
B3 showed an IC50 of 0.428 nM.
Work on B4 yielded an IC50 of 0.79 nM.
In the case of B5, the IC50 is reported as 0.148 nM.
Work on B6 yielded an IC50 of 0.695 nM.
